Results from article PMC11510446, “Establishing a Relationship between In Vitro Potency in Cell-Based Assays and Clinical Efficacious Concentrations for Approved GLP-1 Receptor Agonists” (Pharmaceutics, 2024).
Like-named read-outs stand apart in the source and are kept apart here.

Assays:
human GLP-1R = human GLP-1R (Homo sapiens, UniProt P43220); assay: cAMP accumulation assay (HTRF) in stable CHO cell line expressing human GLP-1R; format: cell-based
Description: Cell-based cyclic adenosine monophosphate (cAMP) accumulation assays were used to measure in vitro potency for GLP-1RAs in a stable Chinese hamster ovary (CHO) cell line expressing human GLP-1R (generated at AstraZeneca) or EndoC-βH1 cells endogenously expressing the GLP-1R (Endocells, Paris, France) as previously described. In brief, test GLP-1RA serial dilutions were prepared using an ECHO® acoustic liquid handler (Beckman, High Wycombe, UK) to obtain an 11-point dose–response curve in assay buffer (Hanks’ balanced salt solution (HBSS)) supplemented with 25 mM of HEPES and 0.5 mM of 3-isobutyl-1-methylxanthine (IBMX). […] The EndoC-βH1 cell assay was performed in an assay buffer containing 0.1% BSA.
Following compound and cell incubation for 30 min, the level of cAMP accumulation was determined using a cAMP dynamic 2 HTRF (homogeneous time-resolved fluorescence) kit (Cisbio, Codolet, France), following the two-step protocol according to the manufacturer’s guidelines. Treated cells were incubated with anti-cAMP cryptate and cAMP-d2 in lysis buffer at room temperature for 1 h and read on an Envision plate reader (PerkinElmer, Waltham, MA, USA).

[1] = human, cited from earlier work
Text: Pharmacokinetic parameters representing rate of absorption (Ka), central clearance (CL), central volume (Vc), peripheral volume (Vp), distribution clearance (CLd), bioavailability (F) and lag- time (Tlag).

Sequence of human GLP-1R (P43220 24-463): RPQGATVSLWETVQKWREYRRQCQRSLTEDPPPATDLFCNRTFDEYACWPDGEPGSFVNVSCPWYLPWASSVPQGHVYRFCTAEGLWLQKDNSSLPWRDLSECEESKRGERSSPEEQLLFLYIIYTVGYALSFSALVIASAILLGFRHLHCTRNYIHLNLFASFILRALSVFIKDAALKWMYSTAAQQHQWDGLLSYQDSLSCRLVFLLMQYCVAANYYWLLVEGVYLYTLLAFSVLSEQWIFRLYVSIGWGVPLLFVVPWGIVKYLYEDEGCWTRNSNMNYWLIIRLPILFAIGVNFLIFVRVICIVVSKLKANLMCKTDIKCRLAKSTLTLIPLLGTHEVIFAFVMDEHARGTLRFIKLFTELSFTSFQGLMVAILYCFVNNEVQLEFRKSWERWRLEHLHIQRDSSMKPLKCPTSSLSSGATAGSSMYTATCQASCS

Compound	EC50 (human GLP-1R; read-out: EC50 (pM) 0.1%, NSB = BSA, shift assay Table S1A, 0.1% BSA)	EC50 (human GLP-1R; read-out: EC50 (pM) 0.1%, NSB = OA, shift assay Table S1B, 0.1% ovalbumin)	EC50 (human GLP-1R; read-out: EC50 (pM) 0.3%, NSB = BSA, shift assay Table S1A, 0.3% BSA)	EC50 (human GLP-1R; read-out: EC50 (pM) 0.3%, NSB = OA, shift assay Table S1B, 0.3% ovalbumin)	EC50 (human GLP-1R; read-out: EC50 (pM) 1%, NSB = BSA, shift assay Table S1A, 1% BSA)	EC50 (human GLP-1R; read-out: EC50 (pM) 1%, NSB = OA, shift assay Table S1B, 1% ovalbumin)	EC50 (human GLP-1R; read-out: EC50 (pM) 3%, NSB = BSA, shift assay Table S1A, 3% BSA)	EC50 (human GLP-1R; read-out: EC50 (pM) 3%, NSB = OA, shift assay Table S1B, 3% ovalbumin)	bioavailability F ([1]; in vivo)	central clearance CL ([1]; in vivo)	central volume Vc ([1]; in vivo)	distribution clearance CLd ([1]; in vivo)	peripheral volume Vp ([1]; in vivo)	rate of absorption Ka ([1]; in vivo)	lag-time Tlag ([1]; T2D, ref [7] (supplement references))	bioavailability F ([1]; fraction, dulaglutide value at 1.5 mg, ref [4] dulaglutide, [5] semaglutide oral, [6] semaglutide sc, [7] liraglutide (supplement references))	central clearance CL ([1]; population PK, T2D (semaglutide oral: T2D, obesity), ref [4] dulaglutide, [5] semaglutide oral, [6] semaglutide sc, [7] liraglutide (supplement references))
Dulaglutide: a DPP-IV-protected GLP-1 analog covalently linked to a human IgG4-Fc heavy chain by a peptide linker	9.07 pM	46.4 pM	10.8 pM	34.1 pM	12.1 pM	30.7 pM	9.7 pM	26 pM	0.47	0.0593 L/h	2.25 L	0.0201 L/h	3.75 L	0.00769 h⁻¹	–	–	–
CCCCCCCCCCCCCCCC(=O)N[C@@H](CCC(=O)NCCCC[C@H](NC(=O)[C@H](C)NC(=O)[C@H](C)NC(=O)[C@H](CCC(N)=O)NC(=O)CNC(=O)[C@H](CCC(=O)O)NC(=O)[C@H](CC(C)C)NC(=O)[C@H](Cc1ccc(O)cc1)NC(=O)[C@H](CO)NC(=O)[C@H](CO)NC(=O)[C@@H](NC(=O)[C@H](CC(=O)O)NC(=O)[C@H](CO)NC(=O)[C@@H](NC(=O)[C@H](Cc1ccccc1)NC(=O)[C@@H](NC(=O)CNC(=O)[C@H](CCC(=O)O)NC(=O)[C@H](C)NC(=O)[C@@H](N)Cc1cnc[nH]1)[C@@H](C)O)[C@@H](C)O)C(C)C)C(=O)N[C@@H](CCC(=O)O)C(=O)N[C@@H](Cc1ccccc1)C(=O)N[C@H](C(=O)N[C@@H](C)C(=O)N[C@@H](Cc1c[nH]c2ccccc12)C(=O)N[C@@H](CC(C)C)C(=O)N[C@H](C(=O)N[C@@H](CCCNC(=N)N)C(=O)NCC(=O)N[C@@H](CCCNC(=N)N)C(=O)NCC(=O)O)C(C)C)[C@@H](C)CC)C(=O)O [Liraglutide]	–	–	–	–	–	–	–	–	–	–	–	–	–	–	6 h	0.51	0.91 L/h
